Molecular target: T1, podoplanin (PDPN), recombinant PDPN-His-Fc (UniProt Q86YL7 23-131)
T1 sequence: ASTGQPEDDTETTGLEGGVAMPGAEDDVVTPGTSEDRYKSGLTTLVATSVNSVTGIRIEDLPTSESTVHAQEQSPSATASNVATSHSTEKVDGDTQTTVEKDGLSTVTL
Experiment: BLI; BLI and dot blot: binding buffer B, 1x PBS, 5 mM MgCl2, 0.1% BSA, 0.01% yeast tRNA (BLI baseline in buffer A: 1x PBS, 5 mM MgCl2, 2 mM CaCl2, 1 mg/mL BSA, 0.1 mg/mL salmon sperm DNA); temperature and pH not given; flow cytometry at 4 C
Settings: protein: commercial, tags: His

[1] = chain copies: 2, label: biotin, parallel G-quadruplex (CD), stem-loop predicted
[2] = chain copies: 2, label: biotin, antiparallel G-quadruplex or B-DNA (CD)

Row | Binder | Kd [1] | Kd [2] | other results
1 | A1 (structured_DNA) DNA: ATCCAGAGTGACGCAGCATCACTAGTGCGCCAGGGGGACTGCTCGGGATTGCGGATACTGGACACGGTGGCTTAGT | – | – | Kd (chain copies: 2, label: biotin (BLI, dot blot, Western blot), FAM (flow cytometry), parallel G-quadruplex (CD), stem-loop predicted): 1.3 nM
2 | A5 (structured_DNA) DNA: ATCCAGAGTGACGCAGCATGCCAAAGGGTCTGCTCGGGATTGCGGAGAGGGCTTGGGGTGGACACGGTGGCTTAGT | 0.2 nM | – | –
3 | A6 (structured_DNA) DNA: ATCCAGAGTGACGCAGCACACCGAGGGGACTGCTCGGGATTGCGGATGAGGTAGCAAGTGGACACGGTGGCTTAGT | 0.2 nM | – | –
4 | A77 (structured_DNA) DNA: ATCCAGAGTGACGCAGCATGGGGGGAGAGTGTGGTCTGGCTTGGTGGGGTCTGGGGGCTGGACACGGTGGCTTAGT | 1.7 nM | – | –
5 | A289 (structured_DNA) DNA: ATCCAGAGTGACGCAGCACGGGTTTGGCGCCGGGCCTGGCGGGTGTAGCGTTTTTGGGTGGACACGGTGGCTTAGT | – | 0.5 nM | –
6 | A1498 (structured_DNA) DNA: ATCCAGAGTGACGCAGCATGCAGGGTTTGGCTTCGGGCCTGGCGGAGAGAGCGTGAGGTGGACACGGTGGCTTAGT | – | 0.4 nM | –

Reference: article PMC11506057, “Identification of Podoplanin Aptamers by SELEX for Protein Detection and Inhibition of Platelet Aggregation Stimulated by C-Type Lectin-like Receptor 2”
